The data set deals with the molecule itself. As to the kind of experiment: negative-stain electron microscopy.

B1: Mod5 (enzyme, S. cerevisiae, UniProt P07884 1-428, looked up)
chain: MLKGPLKGCLNMSKKVIVIAGTTGVGKSQLSIQLAQKFNGEVINSDSMQVYKDIPIITNKHPLQEREGIPHHVMNHVDWSEEYYSHRFETECMNAIEDIHRRGKIPIVVGGTHYYLQTLFNKRVDTKSSERKLTRKQLDILESTDPDVIYNTLVKCDPDIATKYHPNDYRRVQRMLEIYYKTGKKPSETFNEQKITLKFDTLFLWLYSKPEPLFQRLDDRVDDMLERGALQEIKQLYEYYSQNKFTPEQCENGVWQVIGFKEFLPWLTGKTDDNTVKLEDCIERMKTRTRQYAKRQVKWIKKMLIPDIKGDIYLLDATDLSQWDTNASQRAIAISNDFISNRPIKQERAPKALEELLSKGETTMKKLDDWTHYTCNVCRNADGKNVVAIGEKYWKIHLGSRRHKSNLKRNTRQADFEKWKINKKETVE
In the case of B1, the binding result is “binds”.

The record behind these values is publication PMC5468478 (FEBS letters, 2017).
